In article PMC8556265:

Target: Lsi1_(cryst) (rice Low silicon rice 1, ΔN44/ΔC24/K50R/C66A/T93V/C139A/K232R/T253V/K264R) (rice (Oryza sativa cv. Nipponbare))
Assay: crystal structure; X-ray, 1.8 Å; sitting drop vapour diffusion at 7 °C, 39-50% PEG 400, 100 mM Gly-NaOH pH 9.5, 1% OG, 0.1% CHS; space group P2_(1), two tetramers built

## Lsi1_(cryst) (rice Low silicon rice 1, ΔN44/ΔC24/K50R/C66A/T93V/C139A/K232R/T253V/K264R) (domain or fragment)
  stoichiometry N: 4
